Test results: patent publication US20260234245A1

What was measured:
[1] = target: human L1CAM on the surface of human cancer cell lines (human) (UniProt P32004); experiment: flow cytometry on HeLa cells, PE-labeled isotype control (background), mean of triplicates
[2] = target: human L1CAM on the surface of human cancer cell lines (human) (UniProt P32004); experiment: flow cytometry on PC-03 cells, PE-labeled isotype control (background), mean of triplicates
[3] = target: human L1CAM on the surface of human cancer cell lines (human) (UniProt P32004); experiment: flow cytometry on SKOV3 cells, PE-labeled isotype control (background), mean of triplicates
[4] = target: human L1CAM on the surface of human cancer cell lines (human) (UniProt P32004); experiment: flow cytometry on Panc-1 cells, PE-labeled isotype control (background), mean of triplicates
[5] = target: human L1CAM on the surface of human cancer cell lines (human) (UniProt P32004); experiment: flow cytometry on HeLa cells, against PE-labeled isotype control MOPC-173
[6] = target: human L1CAM on the surface of human cancer cell lines (human) (UniProt P32004); experiment: flow cytometry on SKOV3 cells, PE-labeled antibody, mean of triplicates
[7] = target: human L1CAM on the surface of human cancer cell lines (human) (UniProt P32004); experiment: flow cytometry on Panc-1 cells, PE-labeled antibody, mean of triplicates
[8] = target: human L1CAM on the surface of human cancer cell lines (human) (UniProt P32004); experiment: flow cytometry on PC-03 cells, against PE-labeled isotype control MOPC-173
[9] = target: human L1CAM on the surface of human cancer cell lines (human) (UniProt P32004); experiment: flow cytometry on PC-03 cells, PE-labeled antibody, mean of triplicates
[10] = target: human L1CAM on the surface of human cancer cell lines (human) (UniProt P32004); experiment: flow cytometry on Panc-1 cells, against PE-labeled isotype control MOPC-173
[11] = target: human L1CAM on the surface of human cancer cell lines (human) (UniProt P32004); experiment: flow cytometry on SKOV3 cells, against PE-labeled isotype control MOPC-173
[12] = target: human L1CAM on the surface of human cancer cell lines (human) (UniProt P32004); experiment: flow cytometry on HeLa cells, PE-labeled antibody, mean of triplicates

Sequence of human L1CAM on the surface of human cancer cell lines (human) (P32004 20-1257): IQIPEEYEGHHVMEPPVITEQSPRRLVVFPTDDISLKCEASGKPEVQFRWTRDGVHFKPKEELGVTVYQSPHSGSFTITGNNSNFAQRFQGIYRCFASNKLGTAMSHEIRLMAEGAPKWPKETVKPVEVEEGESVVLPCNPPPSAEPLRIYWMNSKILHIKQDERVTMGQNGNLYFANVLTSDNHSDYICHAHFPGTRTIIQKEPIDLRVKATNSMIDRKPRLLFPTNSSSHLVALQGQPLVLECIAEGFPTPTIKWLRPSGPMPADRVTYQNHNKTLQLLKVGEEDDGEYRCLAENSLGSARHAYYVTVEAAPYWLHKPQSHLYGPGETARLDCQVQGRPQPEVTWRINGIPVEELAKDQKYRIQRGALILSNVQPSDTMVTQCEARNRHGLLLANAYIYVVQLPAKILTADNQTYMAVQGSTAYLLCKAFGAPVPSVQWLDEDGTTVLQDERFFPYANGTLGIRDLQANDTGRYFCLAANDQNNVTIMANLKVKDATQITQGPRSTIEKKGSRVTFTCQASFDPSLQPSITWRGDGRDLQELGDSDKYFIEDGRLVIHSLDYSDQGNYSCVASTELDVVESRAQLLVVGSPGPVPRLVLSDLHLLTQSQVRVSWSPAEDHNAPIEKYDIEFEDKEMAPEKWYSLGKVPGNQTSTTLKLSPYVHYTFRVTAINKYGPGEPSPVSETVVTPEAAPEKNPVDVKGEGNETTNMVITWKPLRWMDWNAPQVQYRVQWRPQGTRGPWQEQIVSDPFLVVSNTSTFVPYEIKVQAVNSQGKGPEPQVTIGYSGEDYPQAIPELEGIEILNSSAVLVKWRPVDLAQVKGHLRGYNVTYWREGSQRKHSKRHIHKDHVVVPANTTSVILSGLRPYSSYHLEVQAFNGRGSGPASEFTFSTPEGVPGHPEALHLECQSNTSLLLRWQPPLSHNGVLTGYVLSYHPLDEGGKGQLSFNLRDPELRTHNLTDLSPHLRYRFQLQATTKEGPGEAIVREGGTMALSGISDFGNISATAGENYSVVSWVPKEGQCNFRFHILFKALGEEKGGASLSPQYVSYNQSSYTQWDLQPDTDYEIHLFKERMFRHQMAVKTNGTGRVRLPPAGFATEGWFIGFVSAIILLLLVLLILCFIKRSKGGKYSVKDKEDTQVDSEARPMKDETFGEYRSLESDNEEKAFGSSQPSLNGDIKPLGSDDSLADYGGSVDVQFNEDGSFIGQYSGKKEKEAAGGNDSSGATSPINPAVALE

Substance	MFI isotype control antibody [1] [MFI]	MFI isotype control antibody [2] [MFI]	MFI isotype control antibody [3] [MFI]	MFI isotype control antibody [4] [MFI]	Fold increase in MFI (anti-L1CAM vs isotype) [5] [fold]	MFI anti-L1CAM antibody [6] [MFI]	MFI anti-L1CAM antibody [7] [MFI]	Fold increase in MFI (anti-L1CAM vs isotype) [8] [fold]	MFI anti-L1CAM antibody [9] [MFI]	Fold increase in MFI (anti-L1CAM vs isotype) [10] [fold]	Fold increase in MFI (anti-L1CAM vs isotype) [11] [fold]	MFI anti-L1CAM antibody [12] [MFI]
PE-labeled mouse IgG2a (κ) (clone MOPC-173, BioLegend) (antibody)	9140	9420	8680	13100								
phycoerythrin (PE)-labeled anti-human L1CAM antibody (clone L1-OV198.5, BioLegend)					133	1.5e+06	183000	5	46400	14	173	1.22e+06
